For one molecule, Kd results are on record in patent publication US12135332B2, “Mutant human estrogen receptor-α and methods of use thereof” (Case Western Reserve University, priority 2018, dated 2024).

For this assay, the target named is ERE-DNA. Description: Fluorescence anisotropy DNA-binding assay. Conditions: 6-FAM-labeled ERE-DNA 20 nM, E2-bound hERα^CDE; read-out: DNA-binding affinity Kd. An excerpt:
FIGS. 8(a)-(e) are graphs relating to the purification and characterization of recombinant hERα. […] FIGS. 8(b) and (c) show the purification of hERα^CDE, specifically size exclusion chromatography of hERα^CDE in the absence (b) or presence (c) of ERE-DNA. Shown are the absorbance at 260 nm and 280 nm of hERα^CDE in the presence of estradiol and a coactivator TIF2 peptide. […] Data of 2.8-μM hERα^CDE in the presence of E2 were used as a saturation level and free 20-nM DNA data as a baseline. […] The binding of the hERα to a coactivator TIF2 peptide (sequence […]) (SEQ ID NO: 2) in the presence of E2 and ERE-DNA was measured by surface plasmon resonance (SPR). […]
To further assess the impact of this substitution on the receptor's ability to bind ERE-DNA, a biochemical DNA-binding assay was performed by detecting fluorescence anisotropy of 6-carboxyfluorescein-labeled ERE-DNA in the presence of increasing concentrations of the E2-bound hERα^CDE. […]
The fluorescence-conjugated double-strand ERE-DNA was prepared by annealing 6-FAM (6-carboxyfluorescein) 5′-labeled strands (5′-[…]-3′ (SEQ ID NO: 44) and 5′-[…]-3′ (SEQ ID NO: 45); IDT, Inc) in a buffer containing 10 mM CHES (pH 9.5), 50 mM KCl, 50 mM NaCl, 4 mM MgCl2, 50 mM arginine, 50 mM glutamic acid, 5 mM TCEP, 5% glycerol with 10 μM ZnCl2, and 10 μM E2. […]
In general terms: Polarisation of emitted light reports the rotation of a fluorescent probe.

B1: WT: recombinant wild-type human ERα segment with DBD and LBD, residues E181-P552 (protein)
chain: ETRYCAVCNDYASGYHYGVWSCEGCKAFFKRSIQGHNDYMCPATNQCTIDKNRRKSCQACRLRKCYEVGMMKGGIRKDRRGGRMLKHKRQRDDGEGRGEVGSAGDMRAANLWPSPLMIKRSKKNSLALSLTADQMVSALLDAEPPILYSEYDPTRPFSEASMMGLLTNLADRELVHMINWAKRVPGFVDLTLHDQVHLLECAWLEILMIGLVWRSMEHPGKLLFAPNLLLDRNQGKCVEGMVEIFDMLLATSSRFRMMNLQGEEFVCLKSIILLNSGVYTFLSSTLKSLEEKDHIHRVLDKITDTLIHLMAKAGLTLQQQHQRLAQLLLILSHIRHMSNKGMEHLYSMKCKNVVPLYDLLLEMLDAHRLHAP
What is called Kd is the free concentration of one partner at which half of the binding sites on the other are occupied at equilibrium, for simple one-to-one binding. In the case of B1, the Kd was 9.2 nM.
